T1: Boi1 SH3 (BOI1_YEAST), P38041
T1 chain: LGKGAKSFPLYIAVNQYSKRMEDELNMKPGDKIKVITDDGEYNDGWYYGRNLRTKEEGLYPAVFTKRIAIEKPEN

T2: Boi2 SH3 (BOI2_YEAST), P39969
T2 chain: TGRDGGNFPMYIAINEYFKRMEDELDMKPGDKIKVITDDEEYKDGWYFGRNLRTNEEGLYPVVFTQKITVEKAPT

T3: Rvs167 SH3 (RV167_YEAST), P39743
T3 chain: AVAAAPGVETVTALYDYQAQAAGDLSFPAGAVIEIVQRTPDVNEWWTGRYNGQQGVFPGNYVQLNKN

T4: Yfr024 SH3 (LSB3_YEAST), P43603
T4 chain: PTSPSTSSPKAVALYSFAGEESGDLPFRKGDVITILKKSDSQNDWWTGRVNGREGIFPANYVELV

T5: Yhr016c SH3 (YSC84_YEAST), P32793
T5 chain: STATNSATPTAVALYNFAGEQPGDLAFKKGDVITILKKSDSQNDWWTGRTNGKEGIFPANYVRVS


Experiments:
Assay in all cases: SPOT array
[1] = target: T1, Boi1 SH3 (BOI1_YEAST), P38041
[2] = target: T2, Boi2 SH3 (BOI2_YEAST), P39969
[3] = target: T3, Rvs167 SH3 (RV167_YEAST), P39743
[4] = target: T4, Yfr024 SH3 (LSB3_YEAST), P43603
[5] = target: T5, Yhr016c SH3 (YSC84_YEAST), P32793

Binder | normalised SPOT signal, Boehringer light units (BLU); mean over the file's lines of this peptide [1] | normalised SPOT signal, Boehringer light units (BLU); mean over the file's lines of this peptide [2] | normalised SPOT signal, Boehringer light units (BLU); mean over the file's lines of this peptide [3] | normalised SPOT signal, Boehringer light units (BLU); mean over the file's lines of this peptide [4] | normalised SPOT signal, Boehringer light units (BLU); mean over the file's lines of this peptide [5]
RPSPWLPSKPNSYH [YDR151C 80-93] | 102 | 37.2 | 140 | 6260 | 578
SAFPQSPIRAYGST [YGL197W 1382-1395] | 238 | 37.5 | 48.9 | 186 | 156
RRGPGRPRKDASTS [YDR310C 204-217] | 323 | 53.5 | 212 | 889 | 57.2
RPNPTQPRKPLDSK [YDR359C 776-789] | 210 | 61.7 | 162 | 271 | 104
RLLPSWPKRGFSLL [YIL047C 210-223] | 69.4 | 251 | 719 | 10700 | 1130
RKRPAPPKKKAPST [YFR013W 82-95] | 192 | 39.9 | 59.3 | 840 | 45.5
RMIPELPPKRIGSQ [YMR004W 190-203] | 366 | 201 | 4880 | 34800 | 19200
SALPILPKREVVTR [YGL028C 19-32] | 72.3 | 33.1 | 20100 | 49200 | 43500
RVHPEPPNKPGITT [YDR330W 407-420] | 122 | 76.2 | 55.3 | 271 | 250
RPLPQLPNRNNRPV [YOR181W 311-324] | 6170 | 33.8 | 25200 | 19600 | 9140

Other lines, results leading:

normalised SPOT signal, Boehringer light units (BLU); mean over the file's lines of this peptide [1] | normalised SPOT signal, Boehringer light units (BLU); mean over the file's lines of this peptide [2] | normalised SPOT signal, Boehringer light units (BLU); mean over the file's lines of this peptide [3] | normalised SPOT signal, Boehringer light units (BLU); mean over the file's lines of this peptide [4] | normalised SPOT signal, Boehringer light units (BLU); mean over the file's lines of this peptide [5] | Binder
156 | 17.8 | 42.3 | 2620 | 196 | RVLPSKPKKSVKEN [YLR183C 354-367]
230 | 76.1 | 296 | 384 | 144 | RSIPRGPDKNSLRV [YOR322C 268-281]
54.7 | 8.2 | 15.7 | 7000 | 435 | RTEPSTPSRPVPPD [YJL095W 1078-1091]
148 | 198 | 38.5 | 693 | 113 | RRKPHSPNKKKPKE [YDR223W 12-25]
92.7 | 27.5 | 10900 | 13100 | 3320 | RIVPAIPKKATVDE [YNL064C 356-369]
80.2 | 74.7 | 2100 | 16500 | 2650 | RPTPRKPSRMATDH [YER118C 8-21]
64.5 | 75.9 | 50.7 | 381 | 0 | RPPPLTPEKNLYLT [YER032W 258-271]
873 | 141 | 73 | 2690 | 31.6 | SAIPITPTKRIRRN [YJL194W 2-15]
25.5 | 83.4 | 50.9 | 2110 | 148 | RYKPTPPLKKRYDY [YPL074W 335-348]
52.5 | 30.1 | 73.9 | 547 | 197 | RLIPTSPQKTNINT [YGR146C 14-27]
146 | 47.3 | 39 | 6040 | 838 | RNEPVKPFRNIDLK [YHR037W 29-42]
61.2 | 17 | 4.9 | 511 | 115 | RNEPVIPTKPSSSQ [YNL139C 1279-1292]

— PMC314469, “Protein Interaction Networks by Proteome Peptide Scanning” (PLoS Biology, 2004)
